The labels stand for the following.
B1: Azoarcus group I ribozyme (parent)
chain: GUGCCUUGCGCCGGGAAACCACGCAAGGGAUGGUGUCAAAUUCGGCGAAACCUAAGCGCCCGCCCGGGCGUAUGGCAACGCCGAGCCAAGCUUCGGCGCCUGCGCCGAUGAAGGUGUAGAGACUAGACGGCACCCACCUAAGGCAAACGCUAUGGUGAAGGCAUAGUCCAGGGAGUGGCGAAAGUCACACAAACCGG

Here are results for 15 variants from the RNAGym collection of RNA variant scans (doi:10.1093/molbev/msab373).

Variants of B1 are the subject of the data set. Put plainly: reverse-splicing fitness (ratio to wild type); higher = more active; in vitro selection; Mg2+ level not given. Summed up:
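An in vitro group I ribozyme library with randomized positions was T7-transcribed and gel-purified. In triplicate, 10 pmol RNA in EPPS pH 7.5 was reacted with 50 pmoles of a 30-nt RNA substrate for 1 h at 37 °C across several added MgCl2 levels (1–48 mM), then stopped with EDTA. Products were reverse transcribed from a substrate-complementary primer, PCR-amplified and sequenced (HiSeq 4000). Fitness is a variant's read proportion after selection over that before, normalised to wild type.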
Regarding GUGCCUUGCGCCGGGAAACCACGCAAGGGAUGGUGUCAAAUUCGGCGAAACCUAAGCGCCCGCCCGGGCGUAUGGCAACGCCGAGCCAAGCUUCGGCGCCUGCGCCGAUGAAGGUGUAGCGACUAGACGGCACCCACCUAAGGCGAACGAUAUGGUGAAGGCAUAGUCAAGGGAGAGGCGAAAGUCACACAAACCGG [A120C A145G C150A C169A U176A], the reverse-splicing fitness amounted to 0.0168.

Consider GUGCCUUGCGCCGGGAAACCACGCAAGGGAUGGUGUCAAAUUCGGCGAAACCUAAGCGCCCGCCCGGGCGUAUGGCAACGCCGAGCCAAGCUUCGGCGCCUGCGCCGAUGAAGGUGUAGCGACUAGACGGCACCCACCUAAGGCGAACGAUAUGGUGAAGGCAUAGUCAAGGGAGGGGCGAAAGUCACACAAACCGG [A120C A145G C150A C169A U176G], for which the reverse-splicing fitness worked out at 0.00483.

Consider GUGCCUUGCGCCGGGAAACCACGCAAGGGAUGGUGUCAAAUUCGGCGAAACCUAAGCGCCCGCCCGGGCGUAUGGCAACGCCGAGCCAAGCUUCGGCGCCUGCGCCGAUGAAGGUGUAGCGACUAGACGGCACCCACCUAAGGCGAACGAUAUGGUGAAGGCAUAGUCAAGGGAGCGGCGAAAGUCACACAAACCGG [A120C A145G C150A C169A U176C], for which the reverse-splicing fitness worked out at 0.0217.

On to GUGCCUUGCGCCGGGAAACCACGCAAGGGAUGGUGUCAAAUUCGGCGAAACCUAAGCGCCCGCCCGGGCGUAUGGCAACGCCGAGCCAAGCUUCGGCGCCUGCGCCGAUGAAGGUGUAGCGACUAGACGGCACCCACCUAAGGCGAACGAUAUGGUGAAGGCAUAGUCAAGGGAGUGGCGAAAGUCACACAAACCGG [A120C A145G C150A C169A], for which the reverse-splicing fitness amounted to 0.0153.

Regarding GUGCCUUGCGCCGGGAAACCACGCAAGGGAUGGUGUCAAAUUCGGCGAAACCUAAGCGCCCGCCCGGGCGUAUGGCAACGCCGAGCCAAGCUUCGGCGCCUGCGCCGAUGAAGGUGUAGCGACUAGACGGCACCCACCUAAGGCGAACGAUAUGGUGAAGGCAUAGUCUAGGGAGUGGCGAAAGUCACACAAACCGG [A120C A145G C150A C169U], the reverse-splicing fitness is 0.134.

For GUGCCUUGCGCCGGGAAACCACGCAAGGGAUGGUGUCAAAUUCGGCGAAACCUAAGCGCCCGCCCGGGCGUAUGGCAACGCCGAGCCAAGCUUCGGCGCCUGCGCCGAUGAAGGUGUAGCGACUAGACGGCACCCACCUAAGGCGAACGAUAUGGUGAAGGCAUAGUCGAGGGAGUGGCGAAAGUCACACAAACCGG [A120C A145G C150A C169G], the reverse-splicing fitness amounted to 0.0107.

Take GUGCCUUGCGCCGGGAAACCACGCAAGGGAUGGUGUCAAAUUCGGCGAAACCUAAGCGCCCGCCCGGGCGUAUGGCAACGCCGAGCCAAGCUUCGGCGCCUGCGCCGAUGAAGGUGUAGCGACUAGACGGCACCCACCUAAGGCGAACGCUAUGGUGAAGGCAUAGUCCAGGGAGUGGCGAAAGUCACACAAACCGG [A120C A145G]: the reverse-splicing fitness was 0.772.

Take GUGCCUUGCGCCGGGAAACCACGCAAGGGAUGGUGUCAAAUUCGGCGAAACCUAAGCGCCCGCCCGGGCGUAUGGCAACGCCGAGCCAAGCUUCGGCGCCUGCGCCGAUGAAGGUGUAGCGACUAGACGGCACCCACCUAAGGCGAACGAUAUGGUGAAGGCAUAGUCGAGGGAGGGGCGAAAGUCACACAAACCGG [A120C A145G C150A C169G U176G]: the reverse-splicing fitness worked out at 0.00453.

Regarding GUGCCUUGCGCCGGGAAACCACGCAAGGGAUGGUGUCAAAUUCGGCGAAACCUAAGCGCCCGCCCGGGCGUAUGGCAACGCCGAGCCAAGCUUCGGCGCCUGCGCCGAUGAAGGUGUAGCGACUAGACGGCACCCACCUAAGGCGAACGAUAUGGUGAAGGCAUAGUCGAGGGAGCGGCGAAAGUCACACAAACCGG [A120C A145G C150A C169G U176C], the reverse-splicing fitness stood at 0.0234.

Take GUGCCUUGCGCCGGGAAACCACGCAAGGGAUGGUGUCAAAUUCGGCGAAACCUAAGCGCCCGCCCGGGCGUAUGGCAACGCCGAGCCAAGCUUCGGCGCCUGCGCCGAUGAAGGUGUAGCGACUAGACGGCACCCACCUAAGGCGAACGAUAUGGUGAAGGCAUAGUCGAGGGAGAGGCGAAAGUCACACAAACCGG [A120C A145G C150A C169G U176A]: the reverse-splicing fitness was 0.017.

With GUGCCUUGCGCCGGGAAACCACGCAAGGGAUGGUGUCAAAUUCGGCGAAACCUAAGCGCCCGCCCGGGCGUAUGGCAACGCCGAGCCAAGCUUCGGCGCCUGCGCCGAUGAAGGUGUAGCGACUAGACGGCACCCACCUAAGGCGAACGAUAUGGUGAAGGCAUAGUCCAGGGAGUGGCGAAAGUCACACAAACCGG [A120C A145G C150A], the reverse-splicing fitness came to 0.32.

As to GUGCCUUGCGCCGGGAAACCACGCAAGGGAUGGUGUCAAAUUCGGCGAAACCUAAGCGCCCGCCCGGGCGUAUGGCAACGCCGAGCCAAGCUUCGGCGCCUGCGCCGAUGAAGGUGUAGCGACUAGACGGCACCCACCUAAGGCCAACGCUAUGGUGAAGGCAUAGUCUAGGGAGGGGCGAAAGUCACACAAACCGG [A120C A145C C169U U176G], the reverse-splicing fitness came to 0.0155.

GUGCCUUGCGCCGGGAAACCACGCAAGGGAUGGUGUCAAAUUCGGCGAAACCUAAGCGCCCGCCCGGGCGUAUGGCAACGCCGAGCCAAGCUUCGGCGCCUGCGCCGAUGAAGGUGUAGCGACUAGACGGCACCCACCUAAGGCCAACGCUAUGGUGAAGGCAUAGUCCAGGGAGAGGCGAAAGUCACACAAACCGG [A120C A145C U176A]: the reverse-splicing fitness is 0.693.

GUGCCUUGCGCCGGGAAACCACGCAAGGGAUGGUGUCAAAUUCGGCGAAACCUAAGCGCCCGCCCGGGCGUAUGGCAACGCCGAGCCAAGCUUCGGCGCCUGCGCCGAUGAAGGUGUAGCGACUAGACGGCACCCACCUAAGGCCAACGCUAUGGUGAAGGCAUAGUCCAGGGAGCGGCGAAAGUCACACAAACCGG [A120C A145C U176C]: the reverse-splicing fitness amounted to 0.574.

GUGCCUUGCGCCGGGAAACCACGCAAGGGAUGGUGUCAAAUUCGGCGAAACCUAAGCGCCCGCCCGGGCGUAUGGCAACGCCGAGCCAAGCUUCGGCGCCUGCGCCGAUGAAGGUGUAGCGACUAGACGGCACCCACCUAAGGCCAACGCUAUGGUGAAGGCAUAGUCCAGGGAGGGGCGAAAGUCACACAAACCGG [A120C A145C U176G]: the reverse-splicing fitness stood at 0.266.
